Data published in patent US7611693B2, “Mechanism-based targeted pancreatic beta cell imaging and therapy” (Board of Regents, The Univerisity of Texas System, priority 2003, dated 2009).

Assays:
[1] = system: pancreas; settings: rat, in vivo, iv
Source text: FIG. 47 is a graphical representation comparing pancreas uptake for ^99mTc-DTPA and ^99mTc-DTPA-NGN in breast tumor-bearing rats (n=3/time interval, 20 μCi, IV, p=0.11, 0.05, and 0.01).
FIG. 48 is a graphical representation of pancreas to muscle count density ratio of ^99mTc-DTPA and ^99mTc-NGN in breast tumor bearing rats (n=3/time interval, μCi/rat, IV, p=0.19, 0.19, and 0.029).
Male (n=4) New Zealand white rabbits (Raynichols Rabbitry, Lumberton, Tex.) were inoculated with VX-2 cells (rabbit driven mammary squamous cell carcinoma). At day 14 post-inoculation, scintigraphic imaging studies were conducted with ^99mTc-DTPA-NGN (1 mCi, iv). Computer outlined region of interest was used to analyze target-to-nontarget ratios.

[2] = system: pancreas; assay: Scintigraphic imaging in rodents (planar gamma imaging); type: in vivo; settings: normal rat and 13762 tumor-bearing rats, 300 μCi via tail vein, FIGS. 36-44
Experimental: Scintigraphic imaging in rodents was conducted as follows:
Female Fischer 344 rates (150-175 g) (Harlan Sprague-Dawley, Inc., Indianapolis, Ind.) were inoculated subcutaneously in the right leg with breast cancer cells (10^6 cells/rat) from the 13762 NF cell line (known as DMBA-induced breast cancer cell line). Scintigraphic imaging was serially performed on day 14 after inoculation. Planar images were obtained at 0.5, 1 and 2 hours after injection of 300 μCi of ^99mTc-DTPA-NGN or ^99mTc-DTPA-GLP via tail vein. Control groups were given ^99mTc-DTPA. Imaging was conducted with a gamma camera from Digirad (2020tc Imager, San Diego, Calif.) equipped with a low-energy parallel-hole collimator. The field of view is 20 cm×20 cm with an edge of 1.3 cm. The intrinsic spatial resolution is 3 mm and the matrix is 64×64. The system is designed for a planar image with sensitivity of 56 counts/second (cps)/MBq and spatial resolution of 7.6 mm.

[3] = system: pancreatic beta cells; assay: Animal studies: selective imaging of pancreatic beta cells; type: in vivo
Source text: (§1) The present disclosure addresses at least in part some deficiencies in the prior art by providing novel DTPA-antidiabetic conjugates useful for imaging beta-cell function. Through binding of radiolabeled conjugates, such as ^99mTc-DTPA-antidiabetic conjugates, for example, to pancreatic beta receptors, detectable by gamma scintigraphy, pancreatic function is monitored. Four DTPA-antidiabetic conjugates have been synthesized and evaluated. […] These agents are labeled with isotopes in order to assess beta cell function in diabetic or insulinoma patients both pre- and post-treatment. These compositions and methods are useful to provide early diagnosis as well as monitoring of response of pancreatic disease during treatment.

[4] = Animal studies: acute toxicity at the given doses; type: in vivo
Source text: as §1

In the case of `CC(C)[C@H]1CC[C@H](C(=O)N[C@H](Cc2ccccc2)C(=O)NCCNC(=O)CN(CCN(CCN(CC(=O)O)CC(=O)NCCNC(=O)[C@@H](Cc2ccccc2)NC(=O)[C@H]2CC[C@H](C(C)C)CC2)CC(=O)O)CC(=O)O)CC1` [^99mTc-DTPA-nateglinide, metal not drawn], the “pancreas uptake compared with control groups” value [1] is reported as “pancreas uptake was higher than control groups”.

For ^99mTc-DTPA-glipizide, the “visualization of pancreas by planar scintigraphy” value [2] was “pancreas could be visualized”.

For DTPA-Glipizide, the “selective imaging of pancreatic beta cells” value [3] was “able to selectively image pancreatic beta cells”.

For `CC(C)[C@H]1CC[C@H](C(=O)N[C@H](Cc2ccccc2)C(=O)NCCNC(=O)CN(CCN(CCN(CC(=O)O)CC(=O)NCCNC(=O)[C@@H](Cc2ccccc2)NC(=O)[C@H]2CC[C@H](C(C)C)CC2)CC(=O)O)CC(=O)O)CC1` [DTPA-nateglinide, DTPA-Nateglinide], the acute toxicity [4] was “no acute toxicity”.
